{"source": "patent US5928941", "system": "RKLF full length (Homo sapiens)", "assay": "cell_activity", "conditions": "BAEC cotransfection, CAT repression"}
{"substance": "CAC-tkCAT reporter (single beta-globin CACCC site)", "values": [{"measurement": "activity (% decrease in promoter activity)", "value": 90}]}
